Numbering of substitutions follows the chain as printed. Numbers in names are those of the source. Read-outs that look alike come from different tables or passages of the source.
How the values were obtained:
wheat eIF4E = target: T1, wheat eIF4E (Triticum aestivum, UniProt P29557); test: isothermal titration calorimetry; assay type: binding
T1 sequence (P29557 39-215): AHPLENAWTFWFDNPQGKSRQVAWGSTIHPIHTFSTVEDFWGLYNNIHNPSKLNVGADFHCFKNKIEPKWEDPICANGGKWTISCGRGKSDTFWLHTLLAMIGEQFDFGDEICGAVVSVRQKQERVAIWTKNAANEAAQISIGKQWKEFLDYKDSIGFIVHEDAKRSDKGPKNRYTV

human eIF4E [1] = target: T2, human eIF4E (human, UniProt P06730); test: ITC
GB1-human eIF4E = GB1-human eIF4E (human, UniProt P06730); test: ITC
human eIF4E [2] = target: T2, human eIF4E; test: ITC; remark: listed apart in the source
human eIF4E [3] = target: T2, human eIF4E; test: ITC; remark: listed apart in the source
human eIF4E [4] = target: T2, human eIF4E; test: ITC; remark: listed apart in the source

## C[n+]1cn([C@@H]2O[C@H](COP(=O)(O)OP(=O)(O)OP(=O)(O)O)[C@@H](O)[C@H]2O)c2nc(N)[nH]c(=O)c21 [m7GTP]
Wheat eIF4E
  Kd: 1800 ± 800 nM

B1: SCV PTE G18C (structured_RNA)
RNA: GGUUGCUCGACUGUGAGCGGACCUACCCACUGUGGAAACACCACAGGAACUUCCAACCUUCGGGUGGCGAGGUAGGGCAGAAGAGUGACC
Human eIF4E [1]
  binding result: no binding

B2: SCV PTE G18U (structured_RNA)
RNA: B1 RNA with C18U
Human eIF4E [1]
  binding result: no binding

B3: SCV PTE WT (structured_RNA)
RNA: GGUUGCUCGACUGUGAGGGGACCUACCCACUGUGCUGCCACACAGGAACUUCCAACCUUCGGGUGGCGAGGUAGGGCAGAAGAGUGACC
GB1-human eIF4E
  Kd: 900 ± 236 nM
Human eIF4E [2]
  Kd: 576 ± 56 nM

B4: 5' capped RNA (ssRNA)
RNA: GGGGUCUCUCUUGUCGAGAGGCAAGGAACCC
modifications: 5' cap (m7G)
Human eIF4E [3]
  Kd: 76 ± 3 nM

B5: SCV PTE G18A (structured_RNA)
RNA: B1 RNA with C18A
Human eIF4E [4]
  Kd: 6200 ± 900 nM

From article PMC10823258 (Proceedings of the National Academy of Sciences of the …, 2024)
